Substitutions are numbered along the chain they refer to.
Key:
[1] = molecular target: T1, human pancreatic α-amylase (human, UniProt P04746); test: cell-based or functional assay
T1 sequence: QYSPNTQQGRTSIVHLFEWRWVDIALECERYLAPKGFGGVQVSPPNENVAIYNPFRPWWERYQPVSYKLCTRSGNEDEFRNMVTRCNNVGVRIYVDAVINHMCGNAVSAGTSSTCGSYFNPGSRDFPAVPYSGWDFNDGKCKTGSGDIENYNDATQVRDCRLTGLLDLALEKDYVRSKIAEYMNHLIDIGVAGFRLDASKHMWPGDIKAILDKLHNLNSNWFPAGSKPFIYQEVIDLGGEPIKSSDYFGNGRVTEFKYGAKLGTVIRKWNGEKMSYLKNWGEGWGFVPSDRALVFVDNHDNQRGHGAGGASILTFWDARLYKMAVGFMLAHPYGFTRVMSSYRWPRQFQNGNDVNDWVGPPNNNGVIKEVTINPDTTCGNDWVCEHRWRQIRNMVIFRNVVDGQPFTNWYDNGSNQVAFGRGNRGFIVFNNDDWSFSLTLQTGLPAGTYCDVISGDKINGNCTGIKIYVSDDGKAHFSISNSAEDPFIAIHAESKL

[2] = test system: human pancreatic α-amylase; test: Determination of inhibitory activity against human pancreatic α-amylase; assay type: biochemical; conditions: 1 U = amount inhibiting 50% of amylase activity, pH 6.9, 37° C., soluble starch
Method: The numerical values as given herein for the amylase inhibitory activity are determined by the following method, which are represented in terms of the inhibitory activity value against human pancreatic α-amylase.
Determination of inhibitory activity against human pancreatic α-amylase:
An aqueous solution of a sample and human pancreatic α-amylase were added to 20 mM piperazine-N,N'-bis(2-ethanesulfonic acid) buffer (pH 6.9) containing 50 mM NaCl, 5 mM CaCl2 and 0.02% egg white albumin. The mixture was allowed to stand at 37° C. for 30 min. and then mixed with 0.5 ml of a 1.5% soluble starch solution (pH 6.9). The resulting solution was allowed to react while maintaining at 37° C. for 10 min. and the reaction was then ceased by adding 2.5 ml of a solution (0.08M HCl and 0.4M acetic acid). To 0.2 ml of the reaction solution was added 2.5 ml of an iodine solution (0.05% KI and 0.005% iodine), and the mixture was measured for absorbance at 660 nm. The amylase was used in an amount sufficient to reduce 80% absorbance when no sample solution was contained and the amount of the amylase inhibitor sufficient to inhibit 50% amylase activity at this time was expressed as 1 amylase inhibitory unit (U).

B1: 0.26 AIa (other)
chain: SGPWMCYPGYAFKVPALPGCRPVLKLQCNGSQVPEAVLRDCCQQLADISEWCRCGALYSMLDSMYKEHGVQEGQAGTGAFPSCRREVVKLTAASITAVCKLPIVIDASGDGAYVCKGVAAYPDA
[1]
  Amylase inhibitory activity (U/mg): 26100 U/mg

B2: 0.53 AI: known wheat amylase inhibitor protein composed of two subunits, each identified as SEQ ID NO:4 (protein)
chain 1: B1 chain with Y10Q, K13Q, V23L, C52P, Q71S, K100R, I105V, G117D
chain 2: B1 chain with Y10Q, K13Q, V23L, C52P, Q71S, K100R, I105V, G117D
[2]
  Amylase inhibitory activity: 3,940 U/mg
[2]; listed as 0.58 AI
  Amylase inhibitory activity: less amylase inhibitory activity

B3: 0.53 AI (other)
chain: B1 chain with Y10Q, K13Q, V23L, C52P, Q71S, K100R, I105V, G117D
[1]
  Amylase inhibitory activity (U/mg): 3940 U/mg

B4: 0.26 AIb (other)
chain: SGPWMCYPGYAFKVPALPGCRPVLKLQCNGSQVPEAVLRDCCQQLADISEWCRCGALYSMLDSMYKEHGVQEGQAGTGAFPSCRREVVKLTAASITAVCKLPIVIDASGDGAYVCKGVAAYP
[1]
  Amylase inhibitory activity (U/mg): 20500 U/mg

B5: 0.28 AI (other)
chain: SGPWSWCNPATGYKVSALTGCRAMVKLQCVGSQVPEAVLRDCCQQLADINNEWCRCGDLSSMLRAVTQELGVREGKEVLPGCRKEVMKLTAASVPEVCKVPIPNPSGDRAGVCYGDWCAYPDV
[1]
  Amylase inhibitory activity (U/mg): 840 U/mg

B6: 0.19 AI (other)
chain: SGPWMCYPGQAFQVPALPACRPLLRLQCNGSQVPEAVLRDCCQQLAHISEWCRCGALYSMLDSMYKEHGAQEGQAGTGAFPRCRREVVKLTAASITAVCRLPIVVDASGDGAYVCKDVAAYPDA
[1]
  Amylase inhibitory activity (U/mg): 20300 U/mg

Reference: patent US5789380A, “Agents for inhibiting accumulation of visceral fat” (Nisshin Flour Milling Co., Ltd., priority 1996, dated 1998)
